Test: label from the status in PepcDB records

| Sequence | protein production |
| --- | --- |
| MTPLHGAATPASASAAGSMKASHEASADPRSRFFDERAATWEQRCYPPEARRRLAALVPRFGVERGDCVLDMGTGTGVLIPYLRDGVGDAGRILSFDVSFEMVRRAGCKERDAKGLCVQATAMRIPARDGVFDRVVCFAAFPHFADKPAAMREMARVVRPGGEVVIAHLLSRAELARHHGGHPAVAEDALPDDATMRGLMHDAGLVEGSITDGPGMYVARARKPRTCRAGEGGVPGTPGTPGGRAGGSAGGEGAESAIAGDAEGNGSGVEAGFEARRVFTALKQNDAMHHSAVYGVLSGLLRAFACDAALPHGAPGQGGALRILDVGCGEAADVVQALEGVTVGAYTGVDTSAPALAEARRHLAALGCPVTLIEGDYRLALNTSQGSVDVLWMGLFLHHLPRALKADFLHTAHGLLAPGGMVLAHDPIMGEDDTRETMLARMEAIGRERWHFLTPEEVGMVHRHWSCHGHQERFSDLCALGEAAGFEVDMVWHDADRTYGLVRFMRRG | failed |
| MKLWENGTFYQMTAEGEQVSAVLTKNGQIHAVGEVADLKKQYATEIDETIDLEGKVVFPGFVDAHIHLLWYGQALERLNLNQTTTKKEALALEHHHHHH | not failed |
| MKTVLAFGDSLTWGADPATGLRHPVEHRWPDVLEAELAGKAKVHPEGLGGRTTCYDDHAGPACRNGARALEVALSCHMPLDLVIIMLGTNDIKPVHGGRAEAAVSGMRRLAQIVETFIYKPREAVPKLLIVAPPPCVAGPGGEPAGGRDIEQSMRLAPLYRKLAAELGHHFFDAGSVASASPVDGVHLDASATAAIGRALAAPVRDILG | not failed |
| MRVAVAGGTGLVGKYVVAELRAAGHTPVVLARSHGVDLTTGAGLAGKLSGSDAVIDVANIVTTRRKTAVDFFSRTTGHLIAAARAGGVAHLVTLSIVGSDEVDFGYYFGKRAQEELVRDGAVPWTVVRATQFFEFPEPLLNGVSPVVVVPRMLTRPVAAQDVAQTLVEHAVEGPAGMAPEIAGPDQLDMVDMARRIARARGSRRLVVPVTLPGKVGKAMTTGGLLPRGEYLRGRRTFDAHLASLRAA | failed |
| MLKKIREEFGCIFARDPAAQSFFEILTVYPGVHAVLIHRFSHWLWNHGLHWPARVLSYLARWATGIEIHPGATLGRRLFIDHGMGVVIGETAVIGDDCTLYHGVTLGGTSWQKGKRHPTLGNGVVVGAGAKVLGPITVGDGARIGSNSVVLRTVPAGATVVGIPGHIINPDRRAQEAQRLAIASRLGFDAYGMTPDMPDPVAHAINHMLDHIQALDQQVAKLKEVLRERGIDLEEAPLPDLDDCQLDPGEPQVTVNSSRTGLEHHHHHH | not failed |
| MEIGRVVGNVWATRKDEKLNGQKFLIVKLLVSKDKEKEGLFVAADNAGAGIGDIVLITKGGAARQSIGNREVPIDAAIVGIVDSIDIEEDLEHHHHHH | not failed |
| MYEVELKGYANDEIFEKVRETFEFMRKEIHEDIYYQHPCRDFSKTDEALRIRIKRFNGHNEVFLTYKGPKIDEKSKTRLEIEVEIQEDVDKYFELLDRLGFKEVLKVVKTREKYYVEKGVTITLDEVEGLGKFIEIETLVKEKDEIPEAVEKLEKILRELGVEKFERRSYLELLLEKRTELNI | not failed |
| MPSMSPIDKSWSTCPYGFLDGTHQELRRIFHLWRCKKYRSQFTEEKKATYEEKLAASELFKDKKALYPSSVSQPFKGDYVEITKNPKYQKLNSLVEDKVLLADVVSKINRANGKGTPRIFLLTKKCLVLADQKTGQVKASVPLPDLSSVFVSTQNDGFFALKLREGATSAAKGDYLLSSDRLIEIITKLYCTGAASAERNQIKIDISDEFLVQFKQDKVCVKFIQGTPKNSNSVSCKRKNNRLLEVSVPSP | failed |
| MVDVLWDEIQNLELGQDYPTLFIPNEAYVMVEDRNRLSLIARPLLPRVQNFNAVINALPRAWGLTAHVHGRILDATYVQLLFQTEIYLLSVQRREVWLFNNWFVASQRWEAAPSLNFVTTIDLWVQMRGIPILYVFEKTELEIAQELGEIISLDFHDATSTQIAYIRVRVRFGITDRLRFFQRITFESGETALIRFQYERLRRIYSCFRFTHNLNYYPYRQRFQSIDRERAVFRDSVLRSSFNSQSQMTDSSLQVPLHPPPRVPSSGDAITSGIMRVFEVGESSRGVQDGESHNNMNLGESSKRKNLVILQRDKESRQHKQQETEQRMGGILKPPKKR | not failed |

Reference: a protein production outcome set (Wang et al. 2014)
